# Results as given in patent US20230340071A1 (published 2023).
# B1: Protein 4 (P4) (designed binder)
# chain: PKKKIQLYAEHALYDAEMILKIVKTNSPPAEEELEDYAFNFELILEEIARLFESGDQKDEAEKAKRMKEWMKRIKTTASEDEQEEMANRIRKILEEWIRS
# notes: P2 with H8Y and K33E; N-terminal 6xHis tag and thrombin site in the expression vector; also called S4
# Legend:
# Biotinylated hIL2RG = target: T1, Biotinylated hIL2RG (human, UniProt P31785 23-262, limits assumed, biotinylated (site not stated)); experiment: BLI (Octet RED96), biotinylated hIL2RG on streptavidin sensors, 200 nM protein + 200 nM hIL2RB
# T1 construct: also called human common gamma receptor (hIL2RG); hIL-2Rγc
# T1 sequence: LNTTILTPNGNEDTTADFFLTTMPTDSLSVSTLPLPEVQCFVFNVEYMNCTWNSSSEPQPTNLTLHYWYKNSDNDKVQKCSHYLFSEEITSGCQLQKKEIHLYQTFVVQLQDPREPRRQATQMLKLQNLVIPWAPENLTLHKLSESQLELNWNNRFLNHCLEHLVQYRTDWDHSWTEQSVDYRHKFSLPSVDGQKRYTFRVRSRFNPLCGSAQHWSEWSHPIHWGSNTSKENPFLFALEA
# Description: Biotinylated hIL2RG molecules were immobilized to Streptavidin sensors (SA, ForteBio) at 2 μg/mL in binding buffer (10 mM HEPES, pH 7.4, 150 mM NaCl, 3 mM EDTA, 0.05% surfactant P20, 0.5% non-fat dry milk). After baseline measurement in the binding buffer alone, the binding kinetics were monitored by dipping the biosensors in wells containing 200 nM of protein and 200 nM of hIL2RB for 300 sec. Data were collected in an Octet RED96 (ForteBio) and processed using the instrument's integrated software.
# hIL2RB-fc chimera [1] = target: T2, hIL2RB-fc chimera (human, UniProt P14784 27-240); experiment: BLI competition: hIL2RG-fc on sensor, dilutions of P4 + 20 nM Neo-2/15 + 50 nM hIL2RB-fc; competitor Neo-2/15; read-out binding to hIL2RBG
# T2 construct: also called hIL2 receptor beta; hIL-2Rβ; not shown: Fc part of the bought chimera (captured on anti-human IgG Fc biosensors)
# T2 sequence: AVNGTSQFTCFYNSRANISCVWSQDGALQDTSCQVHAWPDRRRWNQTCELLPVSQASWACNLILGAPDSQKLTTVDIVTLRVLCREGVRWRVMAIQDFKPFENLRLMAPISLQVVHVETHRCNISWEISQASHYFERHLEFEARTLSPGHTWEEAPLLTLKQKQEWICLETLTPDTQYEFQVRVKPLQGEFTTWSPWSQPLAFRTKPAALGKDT
# Description: (§1) All samples were prepared using HBS-EP+buffer from GE Healthcare, which contains 10 mM HEPES, 150 mM NaCl, 3 mM EDTA and 0.05% v/v surfactant P20, pH 7.4. Data were acquired at 30° C. using an Octet RED96e system (ForteBio) and processed using the instrument's integrated software. IC50 values were estimated from response vs antagonist concentration plots.
# hIL2RG-fc chimera = target: T3, hIL2RG-fc chimera (human, UniProt P31785 23-262); experiment: BLI (Octet RED96e), hIL2RG-fc on anti-human IgG Fc sensors, 200 nM P4 + 200 nM hIL2RB-fc
# T3 construct: also called hIL2G; hIL2 receptor gamma; not shown: Fc part of the bought chimera (captured on anti-human IgG Fc biosensors)
# T3 sequence: T1 sequence
# Description: All samples were prepared using HBS-EP+ buffer from GE Healthcare, which contains 10 mM HEPES, 150 mM NaCl, 3 mM EDTA and 0.05% v/v surfactant P20, pH 7.4. Data were acquired at 30° C. using an Octet RED96e system (ForteBio) and processed using the instrument's integrated software.
# mouse IL-2 beta receptor [2] = target: T4, mouse IL-2 beta receptor (mouse, UniProt P16297 27-240); experiment: method not stated
# T4 construct: also called mIL2RB; beta part of mIL2RBG
# T4 sequence (looked up): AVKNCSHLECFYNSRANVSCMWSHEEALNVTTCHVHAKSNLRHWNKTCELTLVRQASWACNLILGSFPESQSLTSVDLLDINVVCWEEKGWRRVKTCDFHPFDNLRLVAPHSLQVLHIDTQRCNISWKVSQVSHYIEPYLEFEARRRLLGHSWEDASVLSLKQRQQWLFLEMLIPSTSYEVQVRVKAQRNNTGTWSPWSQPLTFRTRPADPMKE
# mouse IL-2 beta receptor [3] = target: T4, mouse IL-2 beta receptor; experiment: BLI competition: mIL2RG on sensor, dilutions of P4 + 20 nM Neo-2/15; competitor Neo-2/15; read-out binding to mIL2RBG
# Description: as §1
# [4] = target: T5, human IL-2 receptor (IL-2Rβγc) on cells (human, UniProt P14784 27-551; P31785 23-369); experiment: cell-based or functional assay
# T5 sequence 1: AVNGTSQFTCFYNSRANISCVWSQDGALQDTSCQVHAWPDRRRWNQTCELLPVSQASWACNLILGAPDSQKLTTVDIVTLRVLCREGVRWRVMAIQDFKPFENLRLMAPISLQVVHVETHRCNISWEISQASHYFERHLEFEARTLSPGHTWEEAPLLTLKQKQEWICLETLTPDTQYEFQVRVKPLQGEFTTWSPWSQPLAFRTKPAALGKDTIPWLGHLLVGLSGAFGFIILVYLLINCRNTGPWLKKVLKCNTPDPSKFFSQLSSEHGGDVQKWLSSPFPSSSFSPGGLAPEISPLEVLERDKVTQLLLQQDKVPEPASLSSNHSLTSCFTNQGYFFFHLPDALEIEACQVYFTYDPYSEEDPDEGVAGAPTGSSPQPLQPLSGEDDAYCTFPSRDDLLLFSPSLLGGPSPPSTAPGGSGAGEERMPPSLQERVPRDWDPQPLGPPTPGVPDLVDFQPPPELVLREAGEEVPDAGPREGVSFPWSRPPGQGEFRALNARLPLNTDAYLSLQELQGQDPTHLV
# T5 sequence 2: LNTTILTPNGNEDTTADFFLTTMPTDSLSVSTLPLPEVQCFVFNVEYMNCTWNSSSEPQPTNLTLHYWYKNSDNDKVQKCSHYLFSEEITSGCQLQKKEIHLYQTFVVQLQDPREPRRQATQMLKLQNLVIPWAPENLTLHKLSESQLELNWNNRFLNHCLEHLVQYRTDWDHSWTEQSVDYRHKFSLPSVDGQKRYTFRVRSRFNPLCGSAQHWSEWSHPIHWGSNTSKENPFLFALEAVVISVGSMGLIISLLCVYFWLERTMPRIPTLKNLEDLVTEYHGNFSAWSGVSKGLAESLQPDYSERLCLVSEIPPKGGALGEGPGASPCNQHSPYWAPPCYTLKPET
# Biotinylated hIL2RB = target: T6, Biotinylated hIL2RB (UniProt P14784 27-240, biotinylated (site not stated)); experiment: BLI
# T6 chain: T2 sequence
# [5] = target: T5, human IL-2 receptor (IL-2Rβγc) on cells; experiment: cell-based or functional assay; remark: listed apart in the source
# [6] = target: T7, hIL-2RBG (biotinylated hIL2RG on the sensor with hIL2RB in solution) (UniProt P14784 27-240; P31785 23-262, biotinylated (site not stated)); experiment: BLI competition, inhibition of hIL-2 binding
# T7 chain 1: T2 sequence
# T7 chain 2: T1 sequence
# hIL2RB-fc chimera [7] = target: T2, hIL2RB-fc chimera; experiment: BLI (Octet RED96e), hIL2RB-fc (Symansis) on anti-human IgG Fc sensors
# Description: For this purpose, sensors were soaked in samples containing 20 nM of hIL2RB-fc chimera (Symansis) for 300 sec. […] Finally, sensors were removed from the protein samples and dipped in buffer solutions to promote and measure dissociation (1500 sec). The buffer used to prepare all the samples and soak the sensors was HBS-EP+from GE Healthcare, which contains 10 mM HEPES, 150 mM NaCl, 3 mM EDTA and 0.05% v/v surfactant P20, pH 7.4. Data were acquired at 30° C. using an Octet RED96e system (ForteBio) and processed using the instrument's integrated software. Kinetics were fitted to a 1:1 binding model after subtracting a buffer signal baseline and the Kd values were calculated.
binder,measurement,setting,value
B1,binding result,Biotinylated hIL2RG,no binding (tested: 200 nM)
same,IC50,hIL2RB-fc chimera [1],0.9 nM
same,binding result,hIL2RG-fc chimera,no binding (tested: 200 nM)
same,Kd,mouse IL-2 beta receptor [2],70.6 nM
same,IC50,mouse IL-2 beta receptor [3],67.6 nM
same,"Binding Inhibition IC50 (inhibition of hIL-2 pSTAT5 signaling, human pan T cells, 0.1 nM hIL2)",[4],0.1 nM
same,"Binding Inhibition IC50 (inhibition of hIL-2 pSTAT5 signaling, human pan T cells, 1 nM hIL2)",[4],0.45 nM
same,"Binding Inhibition IC50 (inhibition of hIL-2 pSTAT5 signaling, human pan T cells, 10 nM hIL2)",[4],3.3 nM
same,Kd,Biotinylated hIL2RB,< 1 nM
same,"Signaling Inhibition IC50 (1 nM hIL-2, pSTAT5, CD4+ T cells)",[5],1.46 nM
same,"Signaling Inhibition IC50 (1 nM hIL-2, pSTAT5, CD8+ T cells)",[5],0.3 nM
same,"Signaling Inhibition IC50 (1 nM hIL-2, pSTAT5, all T cells)",[5],0.49 nM
same,IC50,[6],88 nM
same,Kd,hIL2RB-fc chimera [7],0.06 nM
